Assay [1] has as its target T1, SR-TOG3 construct of human CLASP2 (human).
T1 sequence (O75122 whole entry, looked up): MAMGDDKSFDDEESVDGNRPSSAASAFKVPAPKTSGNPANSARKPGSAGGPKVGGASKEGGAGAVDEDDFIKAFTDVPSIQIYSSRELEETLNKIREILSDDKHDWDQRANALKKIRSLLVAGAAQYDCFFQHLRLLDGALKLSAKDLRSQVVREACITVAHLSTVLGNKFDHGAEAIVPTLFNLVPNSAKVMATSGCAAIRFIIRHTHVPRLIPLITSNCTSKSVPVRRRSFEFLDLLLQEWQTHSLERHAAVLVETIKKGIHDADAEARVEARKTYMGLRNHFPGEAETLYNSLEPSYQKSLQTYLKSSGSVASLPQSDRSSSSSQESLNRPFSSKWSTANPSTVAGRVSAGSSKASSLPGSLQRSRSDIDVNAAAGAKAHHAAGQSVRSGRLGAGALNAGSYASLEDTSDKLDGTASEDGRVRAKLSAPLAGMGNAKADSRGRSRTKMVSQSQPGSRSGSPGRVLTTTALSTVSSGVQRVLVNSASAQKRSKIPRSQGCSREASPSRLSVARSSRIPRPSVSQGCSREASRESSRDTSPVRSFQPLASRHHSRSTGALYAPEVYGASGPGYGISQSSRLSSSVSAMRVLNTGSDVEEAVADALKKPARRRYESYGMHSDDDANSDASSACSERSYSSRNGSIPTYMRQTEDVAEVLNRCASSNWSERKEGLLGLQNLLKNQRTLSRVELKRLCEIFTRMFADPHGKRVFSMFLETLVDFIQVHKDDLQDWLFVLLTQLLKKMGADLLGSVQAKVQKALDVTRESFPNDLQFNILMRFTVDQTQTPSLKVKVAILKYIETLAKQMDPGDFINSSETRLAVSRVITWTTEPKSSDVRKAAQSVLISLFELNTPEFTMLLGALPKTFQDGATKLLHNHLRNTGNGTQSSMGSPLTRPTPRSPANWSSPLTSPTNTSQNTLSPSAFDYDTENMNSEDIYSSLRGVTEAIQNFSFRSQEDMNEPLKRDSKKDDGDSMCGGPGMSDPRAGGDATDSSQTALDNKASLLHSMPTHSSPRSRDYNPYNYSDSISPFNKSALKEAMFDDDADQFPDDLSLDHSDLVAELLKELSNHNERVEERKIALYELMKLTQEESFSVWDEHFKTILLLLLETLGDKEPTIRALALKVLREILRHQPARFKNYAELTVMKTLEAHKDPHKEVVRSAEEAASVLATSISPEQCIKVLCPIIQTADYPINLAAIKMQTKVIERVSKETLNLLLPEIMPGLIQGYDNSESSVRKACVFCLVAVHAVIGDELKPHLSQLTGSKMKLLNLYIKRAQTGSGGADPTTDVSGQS
Description: ITC. Background: Isothermal titration calorimetry measures the heat released or taken up as one component is titrated into another.

The target of assay [2] is T2, TOG2-SR construct of human CLASP2 (human).
T2 sequence (O75122 whole entry, looked up): T1 sequence (O75122 whole entry, looked up)
Description: ITC.

Assay [3] addresses T3, SR region of human CLASP2 (residues 311-648) (human, UniProt O75122 311-648).
T3 sequence (looked up): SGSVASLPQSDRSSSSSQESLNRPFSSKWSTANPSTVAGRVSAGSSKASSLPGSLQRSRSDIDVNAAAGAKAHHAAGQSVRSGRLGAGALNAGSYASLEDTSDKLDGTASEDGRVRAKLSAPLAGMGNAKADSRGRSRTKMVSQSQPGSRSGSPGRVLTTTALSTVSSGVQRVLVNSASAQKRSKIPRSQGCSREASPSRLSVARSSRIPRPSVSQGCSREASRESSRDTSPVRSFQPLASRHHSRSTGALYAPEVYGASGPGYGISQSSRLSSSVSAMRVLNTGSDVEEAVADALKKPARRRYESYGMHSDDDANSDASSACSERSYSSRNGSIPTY
Description: ITC.

In assay [4] the target is T3, SR region of human CLASP2 (residues …). Description: ITC. The source holds these as a separate data set.
For assay [5], the target named is αβ-tubulin heterodimer isolated from porcine brain (porcine) (UniProt P02550). Description: co-sedimentation.

Like-named read-outs stand apart in the source and are kept apart here.

For the molecule “EB1 (dimeric) (from UniProt Q15691 1-268) (natural protein)”, the figures for the Kd in assay [1] and in assay [2] were 1200 nM and 2000 nM, respectively. The results for the stoichiometry N (CLASP2 versus EB1 dimer) in assay [1] and in assay [2] were 2 and 2.2, respectively.

B1: EB1 (dimeric) (natural protein, UniProt Q15691 1-268, looked up)
chain: MAVNVYSTSVTSDNLSRHDMLAWINESLQLNLTKIEQLCSGAAYCQFMDMLFPGSIALKKVKFQAKLEHEYIQNFKILQAGFKRMGVDKIIPVDKLVKGKFQDNFEFVQWFKKFFDANYDGKDYDPVAARQGQETAVAPSLVAPALNKPKKPLTSSSAAPQRPISTQRTAAAPKAGPGVVRKNPGVGNGDDEAAELMQQVNVLKLTVEDLEKERDFYFGKLRNIELICQENEGENDPVLQRIVDILYATDEGFVIPDEGGPQEEQEEY
As to B1, in assay [3], binding was put at a Kd of 3000 ± 400 nM and the stoichiometry N (commonly a count of units in the complex or per binding partner) was found to be 2 CLASP2 versus EB1 dimer. Besides, in assay [4], the affinity, expressed as Kd, was 2000 ± 400 nM and the “stoichiometry N” value amounted to 2 CLASP2 versus EB1 dimer.

B2: human CLASP2 TOG3 domain (hC2-TOG3; residues 649-881) (domain or fragment)
chain: MRQTEDVAEVLNRCASSNWSERKEGLLGLQNLLKNQRTLSRVELKRLCEIFTRMFADPHGKRVFSMFLETLVDFIQVHKDDLQDWLFVLLTQLLKKMGADLLGSVQAKVQKALDVTRESFPNDLQFNILMRFTVDQTQTPSLKVKVAILKYIETLAKQMDPGDFINSSETRLAVSRVITWTTEPKSSDVRKAAQSVLISLFELNTPEFTMLLGALPKTFQDGATKLLHNHLRN
In assay [5], B2 had a fold affinity relative to hC2-TOG2 of 3 fold.

Values taken from PMC4646087 (Journal of molecular biology, 2015).
